Here are results for 2 molecules from publication PMC5669812 (Protein expression and purification, 2017).

Where two headings read alike, the source gives them in different places.

Series [1] deals with the molecule itself. Kind of series: native gel or EMSA. (In general: A gel shift assay detects complexes by their altered migration in electrophoresis.)
For series [2], the target named is T1, MTSL-labeled GroEL^A138C (E. coli, UniProt P0A6F5 2-548, C458A | C519A, MTSL nitroxide spin label on cysteine 138). In words: negative-stain electron microscopy.
The target of series [3] is T1, MTSL-labeled GroEL^A138C. In words: negative-stain electron microscopy. The source holds these as a separate data set.

B1: MTS-labeled GroEL^R268C (natural protein, E. coli)
chain: AAKDVKFGNDARVKMLRGVNVLADAVKVTLGPKGRNVVLDKSFGAPTITKDGVSVAREIELEDKFENMGAQMVKEVASKANDAAGDGTTTATVLAQAIITEGLKAVAAGMNPMDLKRGIDKAVTAAVEELKALSVPASDSKAIAQVGTISANSDETVGKLIAEAMDKVGKEGVITVEDGTGLQDELDVVEGMQFDRGYLSPYFINKPETGAVELESPFILLADKKISNIREMLPVLEAVAKAGKPLLIIAEDVEGEALATLVVNTMCGIVKVAAVKAPGFGDRRKAMLQDIATLTGGTVISEEIGMELEKATLEDLGQAKRVVINKDTTTIIDGVGEEAAIQGRVAQIRQQIEEATSDYDREKLQERVAKLAGGVAVIKVGAATEVEMKEKKARVEDALHATRAAVEEGVVAGGGVALIRVASKLADLRGQNEDQNVGIKVALRAMEAPLRQIVLNAGEEPSVVANTVKGGDGNYGYNAATEEYGNMIDMGILDPTKVTRSALQYAASVAGLMITTEAMVTDLPKNDAADLGAAGGMGGMGGMGGMM
modifications: diamagnetic MTS label on cysteine 268
With B1, the binding result in series [1] is recorded as “binds”.

B2: GroES (natural protein)
chain: MNIRPLHDRVIVKRKEVETKSAGGIVLTGSAAAKSTRGEVLAVGNGRILENGEVKPLDVKVGDIVIFNDGYGVKSEKIDNEEVLIMSESDILAIVEA
Consider B2, for which the figures for the “stoichiometry N” value in series [2] and in series [3] were 2 GroES molecules per GroEL-14mer and 1 GroES molecules per GroEL-14mer, respectively.
